± gives the standard deviation of the averaged measurements.
B1: library; a variant is named by its letters at N, in order (parent)
chain: AATGTTGTTGATGCAACCATAAAGTGATATTTAATAATTATTTATAATCAGCAACTTAACCACAAAACAACCATATATTGATATNTCACAAAACAACCATAANTTGATATTTTTGTGAATCGAGTATTTCAGCAAAACTACTGCAGTAAGAA

Legend:
[1] = variants of: B1; assay: relative integration efficiency (T-LR orientation) vs wild-type transposon end (log2 (normalized fold change)); transposon end mutated: left end; higher = more efficient transposition; conditions: with VchCAST RNA-guided transposition machinery (E. coli BL21(DE3) host, lacZ target)
In short: (§1)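 Relative integration efficiency is a fold change of output over input barcode abundance, normalised to reference barcodes and log-transformed. Input plasmids and genomic integration junctions were PCR-amplified and Illumina-sequenced from E. coli BL21(DE3) co-transformed with a T7-driven effector plasmid and pUC57 donor pools of 1549 left-end or 1849 right-end transposon variants. Plating was done with 0.1 mM IPTG at 37°C for 18 h, with two biological output replicates and four reference barcodes.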

[2] = variants of: B1; assay: relative integration efficiency (T-RL orientation) vs wild-type transposon end (log2 (normalized fold change)); transposon end mutated: left end; higher = more efficient transposition; conditions: with VchCAST RNA-guided transposition machinery (E. coli BL21(DE3) host, lacZ target)
In short: as §1

Row | Variant | relative integration efficiency (log2) [1] | relative integration efficiency (log2) [2]
1 | AATGTTGTTGATGCAACCATAAAGTGATATTTAATAATTATTTATATACAGCAACTTAACCACAAAACAACCATATATTGATATCTCACAAAACAACCATAAGTTGATATTTTTGTGAATCGAGTATTTCAGCAAAACTACTGCAGTAAGAA [CG A47T T48A] | 0.0225 ± 0.3 | 0.341 ± 0.033
2 | AATGTTGTTGATGCAACCATAAAGTGATATTTAATAATTATTTATAATCCTCAACTTAACCACAAAACAACCATATATTGATATCTCACAAAACAACCATAAGTTGATATTTTTGTGAATCGAGTATTTCAGCAAAACTACTGCAGTAAGAA [CG A50C G51T] | -0.407 ± 0.67 | -0.196 ± 0.22
3 | AATGTTGTTGATGCAACCATAAAGTGATATTTAATAATTATTTATAATCAGCCACTTAACCACAAAACAACCATATATTGATATCTCACAAAACAACCATAAGTTGATATTTTTGTGAATCGAGTATTTCAGCAAAACTACTGCAGTAAGAA [CG A53C] | -0.195 ± 0.56 | -0.278 ± 0.078
4 | AATGTTGTTGATGCAACCATAAAGTGATATTTAATAATTATTTATAATCCTACACTTAACCACAAAACAACCATATATTGATATCTCACAAAACAACCATAAGTTGATATTTTTGTGAATCGAGTATTTCAGCAAAACTACTGCAGTAAGAA [CG A50C G51T C52A A53C] | -0.0404 ± 0.5 | -0.0487 ± 0.27
5 | AATGTTGTTGATGCAACCATAAAGTGATATTTAATAATTATTTATAATCTGCAACTTAACCACAAAACAACCATATATTGATATCTCACAAAACAACCATAAGTTGATATTTTTGTGAATCGAGTATTTCAGCAAAACTACTGCAGTAAGAA [CG A50T] | -0.977 ± 0.48 | -0.161 ± 0.19
6 | AATGTTGTTGATGCAACCATAAAGTGATATTTAATAATTATTTATAATCCGCAACTTAACCACAAAACAACCATATATTGATATCTCACAAAACAACCATAAGTTGATATTTTTGTGAATCGAGTATTTCAGCAAAACTACTGCAGTAAGAA [CG A50C] | -0.533 ± 0.31 | -0.119 ± 0.099
7 | AATGTTGTTGATGCAACCATAAAGTGATATTTAATAATTATTTATAATCGGCAACTTAACCACAAAACAACCATATATTGATATCTCACAAAACAACCATAAGTTGATATTTTTGTGAATCGAGTATTTCAGCAAAACTACTGCAGTAAGAA [CG A50G] | -0.586 ± 0.44 | -0.168 ± 0.005
8 | AATGTTGTTGATGCAACCATAAAGTGATATTTAATAATTATTTATAATCTCGTACTTAACCACAAAACAACCATATATTGATATCTCACAAAACAACCATAAGTTGATATTTTTGTGAATCGAGTATTTCAGCAAAACTACTGCAGTAAGAA [CG A50T G51C C52G A53T] | -0.839 ± 1.2 | -0.552 ± 0.39
9 | AATGTTGTTGATGCAACCATAAAGTGATATTTAATAATTATTTATAATCTCCAACTTAACCACAAAACAACCATATATTGATATCTCACAAAACAACCATAAGTTGATATTTTTGTGAATCGAGTATTTCAGCAAAACTACTGCAGTAAGAA [CG A50T G51C] | -1.59 ± 0.97 | -0.729 ± 0.46
10 | AATGTTGTTGATGCAACCATAAAGTGATATTTAATAATTATTTATATAGTGCAACTTAACCACAAAACAACCATATATTGATATCTCACAAAACAACCATAAGTTGATATTTTTGTGAATCGAGTATTTCAGCAAAACTACTGCAGTAAGAA [CG A47T T48A C49G A50T] | -1.26 ± 1.6 | -0.735 ± 0.52
